Results reported in CN114349851A (SHANGHAI NAI BIOTECHNOLOGY CO LTD, dated 2022).

Experiments:
[1] = biological target: T1, RBD-Fc (RBD与Fc的融合蛋白), 野生型RBD (SARS-CoV-2, UniProt P0DTC2 319-541); experiment: BLI (Octet RED96), His-tagged nanobody on Ni-NTA sensor, RBD-Fc as analyte
[2] = biological target: T1, RBD-Fc (RBD与Fc的融合蛋白), 野生型RBD; experiment: competitive ELISA, nanobody titrated against RBD binding to coated ACE2
[3] = biological target: T1, RBD-Fc (RBD与Fc的融合蛋白), 野生型RBD; experiment: BLI, compared with C5

Binder	Kd [1] [nM]	IC50 [2] [nM]	fold increase in affinity over C5 [3] [fold]
纳米抗体C5D2 (VHH) VHH: DVQLVESGGGSVQAGGSLRLSCAASGEYSQLRFLGWFRQAPGKEREGVAAGLGANEDGYYADSVKGRFTVSLDNAENTVYLQMNSLKPEDTALYYCAALVIFSHDGPEFLAQNYWGQGTQVTVSS	< 0.001	28	
纳米抗体C5G2 (VHH) VHH: DVQLVESGGGSVQAGGSLRLSCAASGKFSHLVFLGWFRQAPGKEREGVAAGLGAYESGYYADSVKGRFTVSLDNAENTVYLQMNSLKPEDTALYYCAALVVLSRDNTEFIAHNYWGQGTQVTVSS	1.62	88	11
